Results reported in patent US20030078381A1 (VANDERBILT UNIVERSITY, published 2003).
One block for each binder: values may come before it.

Tests used:
[1] = molecular target: T1, secreted human placental alkaline phosphatase (AP) (human, UniProt P05187 23-511); assay: quantitative cell surface AP binding assay on transfected Cos cells
T1 construct: Control probe, used as conditioned medium; also called AP control

[2] = molecular target: T2, human IL-22R1, expressed alone on transfected cells (human, UniProt Q8N6P7 16-574); assay: as above
T2 sequence: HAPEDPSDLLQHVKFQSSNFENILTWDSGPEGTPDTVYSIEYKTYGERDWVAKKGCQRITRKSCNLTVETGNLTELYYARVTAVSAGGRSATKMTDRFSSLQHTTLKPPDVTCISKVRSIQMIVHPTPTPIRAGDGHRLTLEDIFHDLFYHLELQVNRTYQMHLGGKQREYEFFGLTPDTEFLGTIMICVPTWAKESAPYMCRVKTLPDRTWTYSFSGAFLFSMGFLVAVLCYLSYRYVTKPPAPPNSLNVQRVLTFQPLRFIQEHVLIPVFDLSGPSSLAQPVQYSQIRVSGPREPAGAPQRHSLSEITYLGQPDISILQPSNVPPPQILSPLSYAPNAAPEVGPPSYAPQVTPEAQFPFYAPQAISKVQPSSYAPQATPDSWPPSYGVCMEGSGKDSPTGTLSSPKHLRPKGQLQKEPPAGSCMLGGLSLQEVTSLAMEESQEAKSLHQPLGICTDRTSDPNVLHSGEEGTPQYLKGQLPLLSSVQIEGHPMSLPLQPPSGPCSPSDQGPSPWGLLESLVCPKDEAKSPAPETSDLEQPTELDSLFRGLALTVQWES

[3] = molecular target: T3, human IL-20R1, expressed alone on transfected cells (human, UniProt Q9UHF4 30-553); assay: as above
T3 sequence: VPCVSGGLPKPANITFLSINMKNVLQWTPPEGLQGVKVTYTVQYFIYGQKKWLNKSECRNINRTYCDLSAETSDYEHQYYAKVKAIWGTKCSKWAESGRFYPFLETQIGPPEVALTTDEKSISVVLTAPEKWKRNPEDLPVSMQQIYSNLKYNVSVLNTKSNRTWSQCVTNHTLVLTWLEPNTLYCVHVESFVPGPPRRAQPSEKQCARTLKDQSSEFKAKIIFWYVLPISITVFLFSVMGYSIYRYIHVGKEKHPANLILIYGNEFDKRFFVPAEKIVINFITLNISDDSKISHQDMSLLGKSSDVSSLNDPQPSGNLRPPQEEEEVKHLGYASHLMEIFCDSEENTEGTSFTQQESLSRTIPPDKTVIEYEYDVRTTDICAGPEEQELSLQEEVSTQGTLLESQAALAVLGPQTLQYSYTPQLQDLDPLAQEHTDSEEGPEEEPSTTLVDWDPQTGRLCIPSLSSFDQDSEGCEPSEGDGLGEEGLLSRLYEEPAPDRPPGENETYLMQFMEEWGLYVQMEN

[4] = molecular target: T4, IL-22R1/IL-20R2 heterodimeric receptor on co-transfected cells (human, UniProt Q6UXL0 30-311); assay: in situ cell surface AP staining of transfected Cos cells
T4 construct: whole, on cells; Both subunits were co-transfected into Cos-E5, BHK or Ba/F3 cells; also called IL-24 receptor (IL-22R1/IL-20R2)
T4 sequence 1: T2 sequence
T4 sequence 2: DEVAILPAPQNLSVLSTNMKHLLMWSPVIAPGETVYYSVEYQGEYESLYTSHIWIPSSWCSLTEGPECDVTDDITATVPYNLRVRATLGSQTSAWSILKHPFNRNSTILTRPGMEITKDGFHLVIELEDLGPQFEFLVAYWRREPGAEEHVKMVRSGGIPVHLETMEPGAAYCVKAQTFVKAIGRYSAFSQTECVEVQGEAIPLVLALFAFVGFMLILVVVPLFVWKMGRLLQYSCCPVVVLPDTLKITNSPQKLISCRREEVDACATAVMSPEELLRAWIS
Source text: (§1) FIG. 3C illustrates cell surface staining assay for the IL-24 receptor binding. Cos-E5 cells transfected with either the IL-20R1, IL-22R1 and IL20R2 expression vector alone or in pairs were stained for the cell surface-bound IL-24-AP activity and viewed under a light microscope (20× magnification) without phase contrast.
(§2) Based on published data and database searches of GenBank (NCBI), only three R1 and two R2 types of the IL-10 family of receptor subunits can be identified. The three R1 subunits are IL-10R1, IL-20R1 and IL-22R1, whereas the two R2 subunits are IL-20R2 and IL-1OR2, the latter of which is also the second receptor subunit for IL-22. Thus, the IL-24 receptor could be a heterodimer of a combination of the known R1 and R2 receptors. […] The quantitative cell surface binding assays were carried out with Cos cells after transfecting plasmids over-expressing IL-10R2, IL-20R1, IL-22R1 and IL-20R2 individually or in all four R1/R2 combinations (FIG. 3B). […] Using AP staining assays, the quantitative IL-24-AP binding data was confirmed (FIG. 3C). Specific cell surface staining was detected with IL-24-AP when Cos cells were transiently transfected with […] (FIG. 3C).

[5] = molecular target: T5, IL-20 receptor (IL-20R1/IL-20R2) heterodimeric receptor on co-transfected cells (human, UniProt Q6UXL0 30-311); assay: as above
T5 construct: whole, on cells; Both subunits were co-transfected into Cos-E5, BHK or Ba/F3 cells
T5 sequence 1: T3 sequence
T5 sequence 2: T4 sequence 2
Source text: as §1, §2

T1 sequence (P05187 23-511): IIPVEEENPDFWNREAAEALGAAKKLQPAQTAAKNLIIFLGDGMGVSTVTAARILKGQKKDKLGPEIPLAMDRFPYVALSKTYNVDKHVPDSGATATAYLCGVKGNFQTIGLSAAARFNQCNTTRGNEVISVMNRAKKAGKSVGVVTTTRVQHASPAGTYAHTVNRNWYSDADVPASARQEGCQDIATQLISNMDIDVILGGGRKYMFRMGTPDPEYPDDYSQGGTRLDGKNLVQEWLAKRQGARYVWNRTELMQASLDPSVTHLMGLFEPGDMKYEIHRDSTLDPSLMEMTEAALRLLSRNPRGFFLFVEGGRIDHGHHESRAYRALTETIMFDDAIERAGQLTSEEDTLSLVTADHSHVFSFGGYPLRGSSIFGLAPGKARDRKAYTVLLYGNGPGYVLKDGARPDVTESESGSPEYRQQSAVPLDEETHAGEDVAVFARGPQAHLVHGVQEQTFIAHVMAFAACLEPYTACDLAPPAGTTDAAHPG

binding result [1]: no binding
B1: human IL-20R2, expressed alone on transfected cells (receptor, UniProt Q6UXL0 30-311, looked up)
chain: T4 sequence 2
notes: whole, on cells

binding result [2]: no binding
binding result [3]: no binding
binding result [4]: binds
binding result [5]: binds
B2: human IL-24-AP fusion protein (ligand, UniProt Q13007 52-206, looked up)
chain: QEFHFGPCQVKGVVPQKLWEAFWAVKDTMQAQDNITSARLLQQEVLQNVSDAESCYLVHTLLEFYLKTVFKNYHNRTVEVRTLKSFSTLANNFVLIVSQLQPSQENEMFSIRDSAHRRFLLFRRAFKQLDVEAALTKALGEVDILLTWMQKFYKL
notes: Used as conditioned medium; also called Mob-5-alkaline phosphatase fusion protein; not shown: secreted human placental alkaline phosphatase (AP)
